According to the supplement of paper PMC12042874:
± gives the uncertainty stated by the source.

test: amyloid nucleation score (Sup35N fusion, yeast selection) (log enrichment); library NNK1; higher = more nucleation; inactive = no reads after selection
Procedure, shortened: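 Peptides of 20 random codons, each fused to Sup35N, were expressed in psi-negative yeast. Cells were induced with 100 μM copper sulfate for 24 hours and grown 7 days at 30°C on medium lacking adenine and uracil, and plasmid inserts before and after selection were Illumina-sequenced. Nucleation scores are DiMSum log enrichments of output over input reads, centred on the mode score of non-aggregating sequences, and sequences under 100 input reads were excluded.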

| Substance | amyloid nucleation score |
| --- | --- |
| LSILSGWNTE | 0.146 ± 0.32 |
| LSKGRATVYF | 2.06 ± 0.23 |
| LSLGLSGLVQPSDGTVG | -0.284 ± 0.7 |
| LSLRDLGSLALRGLKMNATR | -0.397 ± 0.91 |
| LSMRIQAQMIVAWPTKHPIL | 4.99 ± 0.12 |
| LSMSCENFHLTQSSEGCSRV | 0.19 ± 0.51 |
| LSNRSKNDGKSRLIPMDDVH | inactive |
| LSRPVDNSCLESMRRVDWTH | -0.444 ± 1.2 |
| LSRTKGKAQCLGQVGRMRVL | 0.294 ± 0.54 |
| LSRTSKSPFGGEFLERHIYI | -0.42 ± 1 |
| LSSNSYQDVSVCQGFLFFVA | 3.36 ± 0.15 |
| LSSVNGVLGRIGHLVAPSSF | -0.066 ± 1 |
| LSTMRLGHYCLAYCRLGCLY | 0.827 ± 0.41 |
| LSVNWFGCTWQNHKEGIGRN | 1.79 ± 0.12 |
| LSVSFDVDVMVMIQVNCAIH | 0.105 ± 0.39 |
| LSVVVDRVLDNCLIGLYNAG | 0.174 ± 0.28 |
| LTASLTAGVTRWVLRRFVYH | 0.588 ± 0.77 |
| LTCEFRGTRPMMYASDPLFY | 1.14 ± 0.76 |
| LTFNPLTGCNNSQWFDGISG | -1.23 ± 2.1 |
| LTILCWWLYEIRR | 0.556 ± 0.55 |
| LTLALESLEPIRLTRNMWAL | -0.411 ± 0.65 |
| LTLFEPLMRDCYICSYFNFF | 7.047 ± 0.053 |
| LTLFLCISRLPGTPTLYWVL | 0.752 ± 0.62 |
| LTLKTSNHFIYLSLLYIRVV | -0.03 ± 0.3 |
| LTSGLI | 0.807 ± 1 |

| Substance | amyloid nucleation score |
| --- | --- |
| LTYLMWRRYSNIFQTSCSCL | 0.499 ± 0.59 |
| LVAYVTRRFVLCM | -1.42 ± 1.8 |
| LVENLWTLRRRLVGALF | 0.31 ± 0.4 |
| LVEVNWI | -0.412 ± 0.47 |
| LVFCVLMW | 0.532 ± 0.16 |
| LVFFHISR | 4.94 ± 0.1 |
| LVFSRYYRCLFTIDF | 3.62 ± 0.11 |
| LVFVTWLSMHVNTTGVFSLS | 0.242 ± 0.41 |
| LVITIDARRVAVTLIYMKMR | 2.37 ± 0.15 |
| LVLGSSLWAGCCDQPHGWQV | -0.211 ± 0.54 |
| LVLHNVDELYINSSHF | 0.77 ± 0.5 |
| LVMFEIKLMRFNFTMRSVRR | 2.91 ± 0.13 |
| LVMMTDIANWRLPCYFSNLW | 0.201 ± 0.54 |
| LVPVITWK | 4.3 ± 0.13 |
| LVSDSYNSLSLQDNLALLLI | 0.261 ± 0.4 |
| LVSQTYNMVARLRSSLARVN | 0.243 ± 0.78 |
| LVVAVW | 0.269 ± 0.35 |
| LVWILHVSSVNNHVDWGMLE | -1.64 ± 2.4 |
| LVWVS | 0.134 ± 0.65 |
| LVYRCASRRVSNSFMLCW | -0.542 ± 0.62 |
| LWGRFYIYHSLFHRSHHVKL | -0.284 ± 1 |
| LWHEI | 0.427 ± 0.51 |
| LWLTHKCYCLDSNTCIKCEL | -0.312 ± 0.38 |
| LWLTPTQCMTHNFPLLTPRR | -0.354 ± 0.47 |
| LWLWHELHAIYMGMRGVSVL | inactive |

| Substance | amyloid nucleation score |
| --- | --- |
| LWPDTDPIGGE | -0.74 ± 1.1 |
| LWPKVLMVFTSM | 1.67 ± 0.15 |
| LWRLEWLLSGQRGTSPAVRV | 0.764 ± 0.55 |
| LWSPSQ | 0.202 ± 0.56 |
| LWTFGDRSVWLDDSMRWVPR | -0.145 ± 1.1 |
| LWVFRCARLKVWQPRKGWGQ | 0.844 ± 0.48 |
| LWVFS | 0.762 ± 0.7 |
| LWWFEYRL | -0.016 ± 0.32 |
| LWWLHGDLLLSWGFRMLWPL | 0.117 ± 0.78 |
| LYAWGVRYSVVMLFSYRGVH | -0.026 ± 1.2 |
| LYCRNRCRACCKRFTFK | inactive |
| LYFVCIFPYRVRTECSEQSR | 4.32 ± 0.095 |
| LYGLLAGIMSCHWLSWIACK | -0.96 ± 2.7 |
| LYGSRPYSTTKTY | -0.11 ± 0.33 |
| LYHRGVFELCS | 0.596 ± 0.34 |
| LYKLWQSKFTVYWLEGLTSY | inactive |
| LYLYM | 0.959 ± 0.34 |
| LYTLRLGI | -0.134 ± 0.84 |
| LYVDGGPCPTAELGQRSYEK | -0.17 ± 0.42 |
| LYVDH | inactive |
| LYVPCAIVGSLTRG | 1.06 ± 0.66 |
| LYYDSRASFPCISLEIERYV | -0.083 ± 0.33 |
| MAKSGNEI | 0.062 ± 0.79 |
| MCASASTSKMLVWVWTPYFG | 2.14 ± 0.13 |
| MCGDIPQ | 0.35 ± 0.74 |

| Substance | amyloid nucleation score |
| --- | --- |
| MCGQLV | -0.447 ± 0.74 |
| MCNVGTVRAYSLIQGGIRQC | 0.373 ± 0.34 |
| MCVGRDISGEWSYYQCMVEL | 0.495 ± 0.28 |
| MCVILVELYQRGSWYTRKVM | -0.206 ± 1.1 |
| MCVLYMGGSFRF | 1.58 ± 0.44 |
| MCWPTDAEDAICTSLK | 2.12 ± 0.11 |
| MDKLMSMELLSFLGNRSVHV | inactive |
| MDSFVITSFSYNTSLTMRIL | 1.4 ± 0.42 |
| MDWYIVYRPAYTLLCRIHVR | 1.16 ± 0.39 |
| MECSASYLYVWKIANTLGRM | 0.637 ± 0.31 |
| MEFNMWYLFGDLLVTLDWPK | 0.044 ± 0.45 |
| MEHYLACIWITHVCF | 0.117 ± 1.1 |
| MEPFSAC | -0.276 ± 1.9 |
| MFFGWLFHYLLSSTYMFVSL | -0.266 ± 0.72 |
| MFFSCGVLTILNWIKLKMAR | -0.839 ± 1.1 |
| MFGAHLA | inactive |
| MFGGYRSC | 0.159 ± 1.2 |
| MFIVYRMDLEFM | 1.64 ± 0.51 |
| MFLYLLVVTP | inactive |
| MFRRFSWGR | -0.198 ± 0.44 |
| MFRWHVLGKKITP | -0.067 ± 0.37 |
| MFTNLQIWWDSMACYFWDVF | 0.923 ± 0.48 |
| MFVGGRTNTQMYHMDVVPFQ | 1.13 ± 0.63 |
| MGCLN | 0.082 ± 0.62 |
| MGGWNGNGIFCAYIYM | 0.344 ± 0.15 |

| Substance | amyloid nucleation score |
| --- | --- |
| MGKNMVANWILHHRHSQ | -0.343 ± 0.46 |
| MGTRILSRTFVVYTTPGYCW | 0.093 ± 0.27 |
| MGTSITI | -0.202 ± 0.84 |
| MGVVRLAS | -0.149 ± 0.27 |
| MHLCINWSLSCRAADQFMRR | 3.53 ± 0.17 |
| MHPAVVYCPLIK | 0.735 ± 0.64 |
| MHTKRTTDNKYGSY | -0.208 ± 0.38 |
| MIMMDLHCGVILRALGEHGP | 3.34 ± 0.11 |
| MIRGLPQMMNWVP | 0.758 ± 0.38 |
| MIWPDGQRLMRPTLRMYKTS | 0.279 ± 0.36 |
| MIWVWNRYIIPYFRFCGATL | 0.268 ± 1.2 |
| MKDVILRTWYLRQGEGWGAS | 0.026 ± 0.4 |
| MKLWMEMRWGRG | 5.41 ± 0.064 |
| MKVDNSVLMPATTHQRNMQG | -0.211 ± 0.67 |
| MLEGMRRWNNIALVVIRGVG | -0.556 ± 1.1 |
| MLGCVGSCTR | -1.08 ± 1.1 |
| MLLACPHLTGYGVILIASIA | -0.292 ± 0.36 |
| MLLALVIEADRRRWSVNGMY | 2.93 ± 0.18 |
| MLLSWMNAMVFTRRVHLAEP | -0.469 ± 1.2 |
| MLLWQRSGMQLLAGLSHRVR | -0.702 ± 0.99 |
| MLQFFVSWGILVKICVWTVG | inactive |
| MLSVRTGISGLQSVRTKALA | -0.33 ± 0.51 |
| MLSYVRIGSDQDVVWSDLQR | 2 ± 0.1 |
| MLTRLHVSLSCHFYLWRSL | 0.838 ± 0.56 |
| MLVCDWKTDLGNI | 0.811 ± 0.64 |

| Substance | amyloid nucleation score |
| --- | --- |
| MLVRG | -0.351 ± 0.49 |
| MMAFCS | 0.264 ± 0.39 |
| MMAFDRRCLGFPMNVGYD | 1.07 ± 0.46 |
| MMDVV | -0.756 ± 0.58 |
| MMFAKDSI | 0.372 ± 0.47 |
| MMGIMYLWTWYCN | 0.385 ± 0.58 |
| MMGLY | -0.038 ± 0.32 |
| MMGNNQRSPYDMDREASITF | 0.64 ± 0.43 |
| MMPVRWHMFDAWDLWIDLER | -0.456 ± 0.88 |
| MMTGFNNIPTIKQLGSCAHY | 0.291 ± 0.97 |
| MMWLCAVFPGIRFYGYPGLN | -1.88 ± 2.7 |
| MNALGSTYWDQQSAQQSMWS | 4.92 ± 0.068 |
| MNCLTSRILNVLIGSGCN | 3.33 ± 0.076 |
| MNFCYLCTTWWSYYFQ | -0.38 ± 0.32 |
| MNLSVSVPVHTRLDMMFM | 5.616 ± 0.049 |
| MNLSYSTIVIYHRNEDCNVY | 4.08 ± 0.094 |
| MNPTFILRTGSRGGDYWS | 0.206 ± 0.52 |
| MNSVGAGWFGLRCNYRAHEA | 0.252 ± 1.1 |
| MNTSVAWMVR | -0.149 ± 0.32 |
| MNVVILEAYGRSPIGMQAFF | 2.59 ± 0.18 |
| MPGSTLLSAKMTSLGGTALW | 0.392 ± 0.4 |
| MPKRSKHFVNWVVNA | -0.265 ± 0.29 |
| MPTLNYIVKCSREVTGGILD | inactive |
| MQVVVYKYLTMYQR | 1.29 ± 0.76 |
| MQWPYCGMTFCYTW | -0.047 ± 0.57 |

| Substance | amyloid nucleation score |
| --- | --- |
| MRAFGVNGTVQRWWGSCSRF | 0.766 ± 0.46 |
| MREDIAFDFW | 4.22 ± 0.15 |
| MRGMADYC | -0.251 ± 0.88 |
| MRIPVRLVV | 0.027 ± 0.54 |
| MRIRAKSALSVSLECDLQFL | 0.655 ± 0.3 |
| MRTVIITCCRTFECPMERCS | -2.56 ± 1.4 |
| MRYIKSVVSSVCSYNLPLRA | 0.525 ± 0.44 |
| MSEFADTIMIVNGCGWRVVR | -0.039 ± 0.26 |
| MSHWTMGREWITHLFSGHWG | 0.945 ± 1.1 |
| MSMVNKTSWCYLFCNLRVVY | -1.08 ± 0.86 |
| MSNIVALHCGSFFTDYECIW | 7.608 ± 0.046 |
| MSRIVF | -0.003 ± 0.71 |
| MSRMFRVLHRVLSSW | -0.538 ± 1.2 |
| MSSESLSMGRLDMG | inactive |
| MSSLIVYLRDAPRVLNLYVR | 2.5 ± 0.17 |
| MTFVMHIAWG | 1.55 ± 0.26 |
| MTGINYRAVRCAEGCRASRR | 0.216 ± 0.29 |
| MTHAFLRWSYLFRNIWMHVF | 0.349 ± 1.2 |
| MTHLNPMSFVDPKFVPVDFS | 2.48 ± 0.47 |
| MTSCDWTTTKSSDVAPDWRM | 0.424 ± 0.52 |
| MVHCRQI | 0.219 ± 0.32 |
| MVLFKELIMVFTQARAS | 0.156 ± 0.28 |
| MVQAPLTSQPYNNGMVRQK | -0.055 ± 0.5 |
| MVRWLNTSRKFT | 1.06 ± 0.73 |
| MWCLGLDIFRIRVYRCAGGG | -0.348 ± 0.28 |
